The target of the assay is T1, GST-GSNOR (GST-tagged full-length GSNOR) (Arabidopsis thaliana, UniProt Q96533 1-379).
T1 construct: Arabidopsis thaliana S-nitrosoglutathione reductase (GSNOR, At5g43940), full-length cDNA; source: E. coli BL21, purified
As to the kind of experiment: far-Western, overlay or dot blot; 1 μg of each purified GST fusion protein separated by 10% SDS-PAGE and transferred to a PVDF membrane; blot probed with 1 μg CaM4-His in 10 ml TBST with 0.1 mM CaCl2 (or 0.1 mM EGTA, with which the binding became weaker); detected with anti-His antibody. As to conditions: both partners purified.

T1 sequence (Q96533 whole entry): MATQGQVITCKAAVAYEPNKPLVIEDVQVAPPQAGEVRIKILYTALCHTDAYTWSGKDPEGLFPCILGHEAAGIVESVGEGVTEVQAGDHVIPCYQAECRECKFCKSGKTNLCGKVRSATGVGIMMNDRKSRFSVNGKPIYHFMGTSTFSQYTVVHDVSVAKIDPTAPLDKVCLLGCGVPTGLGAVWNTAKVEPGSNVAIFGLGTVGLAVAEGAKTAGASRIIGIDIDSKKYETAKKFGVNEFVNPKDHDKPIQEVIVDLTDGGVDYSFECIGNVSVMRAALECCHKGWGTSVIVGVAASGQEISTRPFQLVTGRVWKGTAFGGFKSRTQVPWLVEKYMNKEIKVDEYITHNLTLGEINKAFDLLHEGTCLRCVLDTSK

B1: CaM4-His (natural protein)
chain: not shown
notes: Arabidopsis thaliana calmodulin 4 (AtCaM4, At1g66410); AtCaM1 and AtCaM4 encode the same protein; also called CaM-His; AtCaM4; source: E. coli BL21, purified; not shown: His6, C-terminal, kept
As for B1, the binding result was “binds”.

(Values after publication PMC5042403, “Arabidopsis CaM1 and CaM4 Promote Nitric Oxide Production and Salt Resistance by Inhibiting S-Nitrosoglutathione Reductase via Direct Binding” (PLoS Genetics, 2016).)
